Results on two molecules are retold here after patent US20100009439A1.

Common to all, as to conditions: remark: other sources report otherwise
The target of assay [1] is T1, purified full-length human IGF-I receptor (human), P08069. Description: ELISA, hybridoma supernatant on coated purified human IGF-I receptor.
The target of assay [2] is T1, purified full-length human IGF-I …. The experiment in a line: ELISA titration on biotinylated human IGF-I receptor captured on streptavidin; non-linear regression for one-site binding.
Assay [3] shares this target. Description: ELISA titration on human IGF-I receptor, similar to that of the whole antibody.

B1: murine EM164 antibody (antibody, V domains shown)
VH: QVQLQQSGAELVKPGASVKLSCKASGYTFTSYWMHWVKQRPGQGLEWIGEINPSNGRTNYNEKFKRKATLTVDKSSSTAYMQLSSLTSEDSAVYYFARGRPDYYGSSKWYFDVWGAGTTVTVS
VL: DVLMTQTPLSLPVSLGDQASISCRSSQSIVHSNVNTYLEWYLQKPGQSPKLLIYKVSNRFSGVPDRFSGSGSGTDFTLRISRVEAEDLGIYYCFQGSHVPPTFGGGTKLEIKR
modifications: here or on the partner: biotinylated with PEO-maleimide-biotin in the captured format
Regarding B1, the absorbance units (405 nm) (absorbance units) in assay [1] was found to be 1.2. The Kd in assay [2] was found to be 100 pM.

B2: Fab fragment of EM164 antibody (Fab, V domains shown)
VH: QVQLQQSGAELVKPGASVKLSCKASGYTFTSYWMHWVKQRPGQGLEWIGEINPSNGRTNYNEKFKRKATLTVDKSSSTAYMQLSSLTSEDSAVYYFARGRPDYYGSSKWYFDVWGAGTTVTVS
VL: DVLMTQTPLSLPVSLGDQASISCRSSQSIVHSNVNTYLEWYLQKPGQSPKLLIYKVSNRFSGVPDRFSGSGSGTDFTLRISRVEAEDLGIYYCFQGSHVPPTFGGGTKLEIKR
modifications: here or on the partner: biotinylated with PEO-maleimide-biotin in the captured format
For B2, the Kd in assay [3] is 300 pM.
